Laboratory results: US20250270737A1, “Antibodies That Bind GLP1R” (Twist Bioscience Corporation, priority 2019, published 2025)
Changes are numbered by the printed parent chain.

B1: GLP1R-241: GLP1R scFv clone reformatted to IgG2; CDR-H3 SEQ ID NO 2299, heavy 2306, light 2313 (antibody)
heavy: MEWSWVFLFFLSVTTGVHSQVQLVQSGAEVKKPGSSVKVSCKASGGTFSDYAISWVRQAPGQGLEWMGGIIPIFGTTNYAQKFQGRVTITADESTSTAYMELSSLRSEDTAVYYCAKHMSMQGSVAGGTFTSDVSSYLEGQAAKEFIAWLVKGGPSFIRADLVGDAFDVWGQGTLVTVSSASASTKGPSVFPLAPCSRSTSESTAALGCLVKDYFPEPVTVSWNSGALTSGVHTFPAVLQSSGLYSLSSVVTVPSSNFGTQTYTCNVDHKPSNTKVDKTVERKCCVECPPCPAPPVAGPSVFLFPPKPKDTLMISRTPEVTCVVVDVSHEDPEVQFNWYVDGVEVHNAKTKPREEQFNSTFRVVSVLTVVHQDWLNGKEYKCKVSNKGLPAPIEKTISKTKGQPREPQVYTLPPSREEMTKNQVSLTCLVKGFYPSDIAVEWESNGQPENNYKTTPPMLDSDGSFFLYSKLTVDKSRWQQGNVFSCSVMHEALHNHYTQKSLSLSPG
light: MSVPTQVLGLLLLWLTDARCQSVLTQPPSVSAAPGQKVTISCSGISSNIGNNYVSWYQQLPGTAPKLLIYDDDQRPSGIPDRFSGSKSGTSATLGITGLQTGDEADYYCGTWDNILSAAVFGGGTKLTVLGQPKAAPSVTLFPPSSEELQANKATLVCLISDFYPGAVTVAWKADSSPVKAGVETTTPSKQSNNKYAASSYLSLTPEQWKSHRSYSCQVTHEGSTVEKTVAPTECS
B2: GLP1R-244: GLP1R scFv clone reformatted to IgG2; CDR-H3 SEQ ID NO 2302, heavy 2309, light 2316 (antibody)
heavy: MEWSWVFLFFLSVTTGVHSQVQLVQSGAEVKKPGSSVKVSCKASGGTFSSYAISWVRQAPGQGLEWMGGIIPIFGTANYAQKFQGRVTITADESTSTAYMELSSLRSEDTAVYYCARANQHFAATGAGEGQAAKEFIAWLVKGRVEIGYHYYGMDVWGQGTLVTVSSASASTKGPSVFPLAPCSRSTSESTAALGCLVKDYFPEPVTVSWNSGALTSGVHTFPAVLQSSGLYSLSSVVTVPSSNFGTQTYTCNVDHKPSNTKVDKTVERKCCVECPPCPAPPVAGPSVFLFPPKPKDTLMISRTPEVTCVVVDVSHEDPEVQFNWYVDGVEVHNAKTKPREEQFNSTFRVVSVLTVVHQDWLNGKEYKCKVSNKGLPAPIEKTISKTKGQPREPQVYTLPPSREEMTKNQVSLTCLVKGFYPSDIAVEWESNGQPENNYKTTPPMLDSDGSFFLYSKLTVDKSRWQQGNVFSCSVMHEALHNHYTQKSLSLSPG
light: B1 light with I45S, Y53V, D72N, Q74K, P76R, T111S, N114T, I115S, A118V, A119W
B3: GLP1R-243: GLP1R scFv clone reformatted to IgG2; CDR-H3 SEQ ID NO 2301, heavy 2308, light 2315 (antibody)
heavy: MEWSWVFLFFLSVTTGVHSQVQLVQSGAEVKKPGSSVKVSCKASGGTFSTYGINWVRQAPGQGLEWMGGIIPIFGTANYAQKFQGRVTITADESTSTAYMELSSLRSEDTAVYYCARANQHFFGKGDNLAARDFINWLIQTKITDGSNPGYHYYGMDVWGQGTLVTVSSASASTKGPSVFPLAPCSRSTSESTAALGCLVKDYFPEPVTVSWNSGALTSGVHTFPAVLQSSGLYSLSSVVTVPSSNFGTQTYTCNVDHKPSNTKVDKTVERKCCVECPPCPAPPVAGPSVFLFPPKPKDTLMISRTPEVTCVVVDVSHEDPEVQFNWYVDGVEVHNAKTKPREEQFNSTFRVVSVLTVVHQDWLNGKEYKCKVSNKGLPAPIEKTISKTKGQPREPQVYTLPPSREEMTKNQVSLTCLVKGFYPSDIAVEWESNGQPENNYKTTPPMLDSDGSFFLYSKLTVDKSRWQQGNVFSCSVMHEALHNHYTQKSLSLSPG
light: MSVPTQVLGLLLLWLTDARCQSVLTQPPSVSAAPGQKVTISCSGSRSNIGKNYVSWYQQLPGTAPKLLIYENNERPSGIPDRFSGSKSGTSATLGITGLQTGDEADYYCSSYTTSNTQVFGGGTKLTVLGQPKAAPSVTLFPPSSEELQANKATLVCLISDFYPGAVTVAWKADSSPVKAGVETTTPSKQSNNKYAASSYLSLTPEQWKSHRSYSCQVTHEGSTVEKTVAPTECS
B4: GLP1R-238: GLP1R scFv clone reformatted to IgG2; CDR-H3 SEQ ID NO 2296, heavy 2303, light 2310 (antibody)
heavy: MEWSWVFLFFLSVTTGVHSQVQLVQSGAEVKKPGSSVKVSCKASGGSFSSHAISWVRQAPGQGLEWMGGIIPIFGAPNYAQKFQGRVTITADESTSTAYMELSSLRSEDTAVYYCARANQHFSQAGRAARVPGPSSSLGPRGYHYYGMDVWGQGTLVTVSSASASTKGPSVFPLAPCSRSTSESTAALGCLVKDYFPEPVTVSWNSGALTSGVHTFPAVLQSSGLYSLSSVVTVPSSNFGTQTYTCNVDHKPSNTKVDKTVERKCCVECPPCPAPPVAGPSVFLFPPKPKDTLMISRTPEVTCVVVDVSHEDPEVQFNWYVDGVEVHNAKTKPREEQFNSTFRVVSVLTVVHQDWLNGKEYKCKVSNKGLPAPIEKTISKTKGQPREPQVYTLPPSREEMTKNQVSLTCLVKGFYPSDIAVEWESNGQPENNYKTTPPMLDSDGSFFLYSKLTVDKSRWQQGNVFSCSVMHEALHNHYTQKSLSLSPG
light: MSVPTQVLGLLLLWLTDARCQSVLTQPPSVSAAPGQKVTISCSGSTSNIANNYVSWYQQLPGTAPKLLIYANNRRPSGIPDRFSGSKSGTSATLGITGLQTGDEADYYCGAWDVRLDVGVFGGGTKLTVLGQPKAAPSVTLFPPSSEELQANKATLVCLISDFYPGAVTVAWKADSSPVKAGVETTTPSKQSNNKYAASSYLS

Key:
[1] = Thermal ramp stability (Tm and Tagg), UNcle platform; format: physicochemical
Description: The GLP1R IgGs were characterized for thermal ramp stability (Tm and Tagg). The UNcle platform was used to characterize the IgGs and the data is seen in Table 21.

[2] = biological target: GLP1R (Homo sapiens, UniProt P43220); assay: Binding assay with flow cytometry on flag-GLP1R-GFP expressing CHO cells (CHO-GLP1R); settings: 100 nM IgG
Procedure: (§1) Briefly, flag-GLP1R-GFP expressing CHO cells (CHO-GLP1R) and CHO-parent cells were incubated with 100 nM IgG for 1 hour on ice, washed three times and incubated with Alexa 647 conjugated goat-anti-human antibody (1:200) for 30 minutes on ice, followed by three washes. All incubations and washes were performed in buffer containing PBS and 0.5% BSA. For titrations, IgG was serially diluted 1:3 starting from 100 nM. […] Analyses of binding assays with IgG titrations presented as binding curves plotting IgG concentrations against MFI (mean fluorescence intensity) are seen in FIGS. 15A-15H. Flow cytometry data of binding assays presented as dot plots with 100 nM IgG are seen in FIGS. 16A-16I.
(§2) The GLP1R IgGs were then assayed in binding assays coupled to flow cytometry analysis using similar methods as described in Example 12. Briefly, stably expressing Flag-GLP1R-GFP CHO cells or CHO-parent cells were incubated with primary IgG (100 nM or 1:3 titrations). Secondary antibody incubation involved Alexa 647 conjugated goat-anti-human IgG. Flow cytometry measured the GFP signal against the Alexa 647 signal to identify IgGs that specifically bound to the target (GLP1R).

[3] = tested on: CHO-parent cells; assay: Binding assay with flow cytometry on CHO-parent cells; settings: 100 nM IgG
Procedure: as §1, §2

Chain of GLP1R (P43220 24-463): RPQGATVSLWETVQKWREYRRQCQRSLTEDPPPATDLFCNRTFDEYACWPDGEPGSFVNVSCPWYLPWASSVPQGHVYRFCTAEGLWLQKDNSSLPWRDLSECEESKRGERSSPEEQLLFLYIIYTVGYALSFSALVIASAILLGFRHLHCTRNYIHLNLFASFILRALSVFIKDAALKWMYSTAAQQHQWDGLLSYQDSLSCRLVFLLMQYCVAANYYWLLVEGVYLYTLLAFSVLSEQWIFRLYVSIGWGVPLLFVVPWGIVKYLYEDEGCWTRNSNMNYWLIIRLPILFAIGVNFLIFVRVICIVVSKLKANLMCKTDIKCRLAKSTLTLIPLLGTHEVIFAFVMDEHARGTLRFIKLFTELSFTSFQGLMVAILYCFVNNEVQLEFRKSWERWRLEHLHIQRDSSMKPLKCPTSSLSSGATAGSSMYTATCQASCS

Molecule	Average Tagg 266 [1] [°C]	Average Tm2 [1] [°C]	Average Tml [1] [°C]	binding to CHO-GLP1R [2]	binding to CHO-parent cells versus CHO-GLP1R (specificity) [3]
B1	65.9	75.7	68.2	found to bind to CHO-GLP1R	–
B2	–	–	–	found to bind to CHO-GLP1R	–
B3	–	–	–	found to bind to CHO-GLP1R	–
B4	–	–	–	found to bind to CHO-GLP1R	bound equally to CHO-GLP1R and CHO-parent cells
